Data on 3 molecules can be found in patent US10870691B2, “Antibodies and fragments thereof that bind hepatitis B virus protein X” (priority 2018, dated 2020).

Like-named read-outs stand apart in the source and are kept apart here. Ends that are not written are not given here.

One test concerns HBV. As to the kind of experiment: Extracellular HBV DNA quantification (qPCR) in HBV-infected PHH. In kind it is cell-based, HBV genotype D in primary human hepatocytes. Particulars: siRNA 25 nM transfected or ETV treatment from day 6 post-infection (FIGS. 8A, 9A, 10A). As for the experimental part:
PHH were infected with HBV or HBVΔX (1000 genomic equivalents/cell) or transduced with lentiviruses as described previously (Niu, et al., PLoS One (2017) 12:e0169648).
(§1) siRNA transfections were performed using Lipofectamine RNAiMax.
Extracellular HBeAg and HBV DNA were measured as previously described (Niu, et al., PLoS One (2017) 12:e0169648, 29). HBeAg levels were measured by enzyme-linked immunosorbent assay or electrochemiluminescence assay (Meso Scale Discovery, Rockville, Md.). Extracellular HBV DNA was purified from cell-culture medium using a DNeasy 96 Blood & Tissue Kit (Qiagen) and quantified by qPCR on a QuantStudio 7 Flex Real-Time PCR System (ThermoFisher Scientific) using primers and a probe designed to the HBx region of the HBV genome; forward primer: 5′-CCGTCTGTGCCTTCTCATCTG-3′; reverse primer: 5′-AGT CCA AGA GTY CTC TTA TGY AAG ACC TT-3′; probe: 5′/56-FAM/CCG TGT GCA/ZEN/CTT CGC TTC ACC TCT GC/3IABkFQ/3′. HBV DNA levels were normalized to β-actin.

The test system of test [1] is HBx. As to conditions: HBV-infected PHH, confocal microscopy (FIGS. 8B, 9B, 10B).
A further test relates to Smc6. As to the kind of experiment: Confocal microscopy of Smc6 in HBV-infected PHH after treatment. In kind it is cell-based, human. As to conditions: confocal microscopy (FIGS. 8B, 10B). As for the experimental part:
as §1

A short description of test [2]: Mouse immunization with peptide-BSA conjugate. In kind it is in vivo. Particulars: 10 μg peptide-BSA conjugate plus 1 μg adjuvant, biweekly injections, CD-1 mice.
Description: (§3) Two of these HBx peptides were individually conjugated to BSA and three NZB/W, three CD-1, and three BALB/c mice were immunized with 10 μg peptide-BSA conjugate plus 1 μg adjuvant (ALD and MDP in a 1:1 ratio). Biweekly injections were performed using a “rapid” immunization protocol developed by Antibody Solutions. […] The top 50 candidates were further evaluated by confocal imaging of HBV-infected PHH.
For test [3], the target named is HBx (Hepatitis B virus genotype D subtype ayw, UniProt P03165). Particulars: top 50 candidates, HBV-infected PHH.
Description: as §3
Test [4] relates to recombinant HBx-DDB1 fusion protein. Kind of test: HBx ELISA, binding to recombinant HBx-DDB1 fusion protein. On the set-up: species or system HBV. As to conditions: 100 ng/mL antibody, varying concentrations of fusion protein. On the procedure: Mouse monoclonal anti-HBx antibodies were developed by Antibody Solutions (Sunnyvale, Calif.). Antibody candidates were screened by enzyme-linked immunosorbent assay (ELISA) using recombinant HBx-DDB1 fusion protein and then by confocal microscopy on HBV infected PHH.
Antibody candidates were screened by ELISA. […] Signal strength was measured as absorbance at 450 nm.

The next test addresses HBx69-87 peptide (Hepatitis B virus genotype D subtype ayw, UniProt P03165). As to conditions: 100 ng/mL antibody, varying concentrations of HBx peptide. As for the experimental part: (§2) Antibody candidates were screened by ELISA. Briefly, sulfhydryl plates were coated with 36 ng/mL recombinant HBx-DDB1 fusion protein, blocked and then incubated with 50 μL of undiluted hybridoma supernatant. Signal was detected colorimetrically with a goat anti-mouse-HRP antibody (Jackson Immuno Research, West Grove, Pa.) and incubation with TMB substrate solution (MossBio, Pasadena, Mass.). Signal strength was measured as absorbance at 450 nm. ELISA profiling of mAbs was performed using 100 ng/mL antibody with varying concentrations of recombinant HBx-DDB1 fusion protein or HBx peptide.

For a further test, the target named is HBx27-50 peptide (Hepatitis B virus genotype D subtype ayw, UniProt P03165). As to conditions: 100 ng/mL antibody, varying concentrations of HBx peptide. As for the experimental part:
as §2

The subject of test [5] is HBx. As to conditions: for detection of HBx by Western blot in PHH transduced with Myc-HBx lentivirus: Myc-tagged HBx genotype D, lysates day 3 post-transduction; for HBx genotype recognized by Western blot: PHH transduced with lentiviruses expressing HBx genotype A-E; for detection of HBx by Western blot in HBV-infected PHH: lysates day 4 post-infection. As for the experimental part: For Western blotting experiments, PHH were transduced with Myc-HBx-expressing lentivirus or were infected with wild-type HBV, HBx-negative HBV (HBVΔX), or were mock-infected.
Western blotting was performed as previously described (Decorsière, et al., Nature (2016) 531:386-389). Briefly, PHH were transduced with a lentivirus expressing 3xMyc-HBx (HBV genotype A, B, C, D or E) or infected with wild-type HBV, HBVΔX, or mock-infected. On the indicated day post-transduction or post-infection, lysates were collected by adding 0.25 mL 1× cell lysis buffer (Cell Signaling) combined with protease inhibitor cocktail (ThermoFisher Scientific) and scraping to remove the cells from the plates. Membranes were probed with 1:250 diluted mouse monoclonal anti-Smc6 (Abgent), 1:1000 diluted mouse monoclonal c-Myc (LifeSpan Biosciences), 1:250 diluted mouse monoclonal anti-HBx mAb (15 μg/mL final concentration), and 1:2000 diluted rabbit monoclonal anti-GAPDH (Cell Signaling). IRDye 680RD goat anti-rabbit or IRDye 800CW goat anti-mouse IgG (LI-COR, Lincoln, Nebr.) at a 1:5000 dilution were used as secondary antibodies. Blots were visualized using an Odyssey Infrared Imaging System (LI-COR).
(In general: A western blot detects proteins with antibodies after separation by electrophoresis.)

Sequence of HBx (Hepatitis B virus genotype D subtype ayw, UniProt P03165) (P03165 whole entry, the tested form may be a part): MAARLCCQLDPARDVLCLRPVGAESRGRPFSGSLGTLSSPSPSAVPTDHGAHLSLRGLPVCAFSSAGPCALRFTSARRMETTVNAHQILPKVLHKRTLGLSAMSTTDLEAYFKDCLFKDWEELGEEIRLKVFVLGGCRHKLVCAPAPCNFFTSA

For the molecule `C=C1[C@H](CO)[C@@H](O)C[C@@H]1n1cnc2c(=O)[nH]c(N)nc21` [ETV, entecavir], the “extracellular HBV DNA levels” value with HBV was “significantly reduced”. For the same molecule, the “change in percentage of HBx-positive cells” value in the test on HBx [1] is recorded as “Neither ETV nor siCtrl significantly reduced”. Also, the “change in percentage of Smc6-positive cells” value in the test with Smc6 was “Neither ETV nor siCtrl significantly reduced the percentage of HBx-positive cells or increased the percentage of Smc6-positive cells”.
“HBx27-50: HBx AD38 (genotype D) residue 27-50 peptide, conjugated to BSA for immunization (GRPFSGSLGTLSSPSPSAVPTDHG; also: conjugated to BSA)”: in [2], the “immunogenicity of peptide-BSA conjugate” value was “immunogenic”.

B1: HBx M19: mouse monoclonal antibody against HBx; heavy chain SEQ ID NO: 27, light chain SEQ ID NO: 30 (Table 1) (antibody)
heavy: EVQLQQSGPELVKPGASVKISCQASGYTFTDYYMNWVKQSHGKRLEWIGDINPNNGGTAYNQKFKGKATLTVDRSSSTAYMEVRSLTSEDSAVYFCALLAYWGQGTLVTVSAAKTTPPSVYPLAPGSAAQTNSMVTLGCLVKGYFPEPVTVTWNSGSLSSGVHTFPAVLQSDLYTLSSSVTVPSSTWPSQTVTCNVAHPASSTKVDKKIVPRDCGCKPCICTVPEVSSVFIFPPKPKDVLTITLTPKVTCVVVDISKDDPEVQFSWFVDDVEVHTAQTKPREEQINSTFRSVSELPIMHQDWLNGKEFKCRVNSAAFPAPIEKTISKTKGRPKAPQVYTIPPPKEQMAKDKVSLTCMITNFFPEDITVEWQWNGQPAENYKNTQPIMDTDGSYFVYSKLNVQKSNWEAGNTFTCSVLHEGLHNHHTEKSLSHSPGK
light: DVVMTQTPLSLPVSLGDQASISCRSSQSLVYSDGNTHLHWYLQKTGQSPKLLIYKASNRFSGVPDRFSGSGSGTDFTLKISRVEAEDLGVYFCSQSTHVPLTFGAGTKLELKRADAAPTVSIFPPSSEQLTSGGASVVCFLNNFYPKDINVKWKIDGSERQNGVLNSWTDQDSKDSTYSMSSTLTLTKDEYERHNSYTCEATHKTSTSPIVKSFNRGEC
On to B1, for which the “selectivity and sensitivity of hybridoma clones by confocal imaging” value with HBx [3] is “most selective and sensitive”. In test [4], the “binding to recombinant HBx-DDB1 fusion protein by ELISA” value was “bound”. Further, the “binding to HBx69-87 control peptide by ELISA” value with HBx69-87 peptide was “did not bind”. In addition, the “binding to HBx27-50 peptide by ELISA” value in the test with HBx27-50 peptide is recorded as “potently bound”. For the same molecule, in the test with HBx [5] (listed as HBx mAb), the “detection of HBx by Western blot in PHH transduced with Myc-HBx lentivirus” value is given as “detected a 17 kDa protein”, the “HBx genotype recognized by Western blot” value is “primarily recognizes genotype D HBx” and the “detection of HBx by Western blot in HBV-infected PHH” value (from here on “detection … in HBV-infected PHH”) is reported as “detects a 17 kDa band”. Besides, in the test on HBx [5] (listed as αHBx mAb), the “detection of HBx by Western blot in PHH transduced with Myc-HBx lentivirus” value was “detected” and the “detection … in HBV-infected PHH” value is “detected”. Further, in the test on HBx [5] (listed as anti-HBx mAb), the “HBx genotype recognized by Western blot” value is reported as “selective for genotype D HBx” and the “detection … in HBV-infected PHH” value is “able to detect physiologically relevant levels of HBx protein”. In addition, the “sensitivity in Western blot analysis versus the other mAb” value with HBx [5] (lentivirus-expressed HBx in PHH) is listed as “superior sensitivity”.
